According to patent US20030186868A1 (Regeneron, published 2003):
Read-outs that look alike come from different tables or passages of the source. Bridge positions count the residues as written; N and C are the ends. Ends that are not written are not given here.

What was measured:
[1] = molecular target: T1, human vascular endothelial growth factor receptor-2 (hVEGFR-2) (human, UniProt P35968 20-1356); test: 125I-VEGF165 competition, whole COS-1 cells
T1 construct: whole, on cells; also called flk-1; FLK-1
T1 sequence (P35968 20-1356): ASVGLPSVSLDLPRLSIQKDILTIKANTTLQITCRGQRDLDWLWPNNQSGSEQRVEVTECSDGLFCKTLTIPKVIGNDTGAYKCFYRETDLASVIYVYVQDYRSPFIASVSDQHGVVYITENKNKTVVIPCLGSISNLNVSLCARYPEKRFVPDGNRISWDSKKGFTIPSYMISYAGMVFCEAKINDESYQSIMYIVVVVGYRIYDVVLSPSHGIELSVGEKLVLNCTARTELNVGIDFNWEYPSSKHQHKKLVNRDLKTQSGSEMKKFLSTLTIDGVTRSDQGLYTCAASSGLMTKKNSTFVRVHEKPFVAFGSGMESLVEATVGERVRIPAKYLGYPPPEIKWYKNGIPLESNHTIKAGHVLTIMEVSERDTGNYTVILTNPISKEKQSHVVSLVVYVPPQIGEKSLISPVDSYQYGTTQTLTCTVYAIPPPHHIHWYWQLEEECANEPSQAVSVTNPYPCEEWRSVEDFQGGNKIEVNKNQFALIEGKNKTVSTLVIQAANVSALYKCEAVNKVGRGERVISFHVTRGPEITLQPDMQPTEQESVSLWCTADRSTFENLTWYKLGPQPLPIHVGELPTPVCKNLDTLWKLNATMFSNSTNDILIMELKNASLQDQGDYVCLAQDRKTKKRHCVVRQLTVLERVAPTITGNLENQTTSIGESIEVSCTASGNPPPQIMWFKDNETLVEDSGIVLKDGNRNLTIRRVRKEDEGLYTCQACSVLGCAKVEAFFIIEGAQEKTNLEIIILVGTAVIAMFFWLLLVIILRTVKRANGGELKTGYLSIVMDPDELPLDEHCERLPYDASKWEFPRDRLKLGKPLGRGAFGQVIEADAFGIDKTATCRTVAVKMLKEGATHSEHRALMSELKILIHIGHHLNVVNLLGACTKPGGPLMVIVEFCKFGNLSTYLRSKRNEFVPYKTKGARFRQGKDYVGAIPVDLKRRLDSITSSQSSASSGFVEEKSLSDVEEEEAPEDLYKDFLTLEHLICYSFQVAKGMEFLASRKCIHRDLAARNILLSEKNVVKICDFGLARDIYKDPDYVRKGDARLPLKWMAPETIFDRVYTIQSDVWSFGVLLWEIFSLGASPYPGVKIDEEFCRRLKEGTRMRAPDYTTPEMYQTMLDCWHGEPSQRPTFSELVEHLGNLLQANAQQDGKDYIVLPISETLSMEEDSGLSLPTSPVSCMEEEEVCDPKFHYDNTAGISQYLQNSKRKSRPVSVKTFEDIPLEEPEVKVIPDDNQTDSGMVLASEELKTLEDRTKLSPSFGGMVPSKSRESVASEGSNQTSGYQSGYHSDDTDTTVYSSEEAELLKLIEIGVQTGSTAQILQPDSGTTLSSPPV
Protocol: (§1) Cells are plated the day before experimentation at 200,000 cells per well in twelve well tissue culture plates (VWR) in 1 ml of growth medium specific for each cell type. On the day of experimentation, the cells were pre-equilibrated at 4° C. for 30 to 60 minutes in binding buffer (0.2% BSA, Sigma; 25 mM Hepes, Gibco; MEM, Gibco). […] The binding reaction is allowed to reach equilibrium for four hours at 4° C. with gentle agitation.
(§2) Unbound ligand is then removed by quickly washing three times with 5 ml ice cold BSA-free binding buffer (MEM, Gibco, 25 mM Hepes, Gibco). Cells are lysed by the addition of 250 μl of RIPS Buffer (previously described), and the lysed cells are transferred to 12×75 mm test tubes and counted using a gamma counter. Generation of competition curves and IC₅₀ values are performed using the Prism software package (Graphpad Software Inc., San Diego, Calif.).

[2] = molecular target: T2, human Neuropilin-1 (hNP-1) (human, UniProt O14786 22-923); test: 125I-VEGF165 competition, stable Balb/C 3T3 A31 cells
T2 construct: whole, on cells; also called hNeuropilin-1
T2 sequence (O14786 22-923): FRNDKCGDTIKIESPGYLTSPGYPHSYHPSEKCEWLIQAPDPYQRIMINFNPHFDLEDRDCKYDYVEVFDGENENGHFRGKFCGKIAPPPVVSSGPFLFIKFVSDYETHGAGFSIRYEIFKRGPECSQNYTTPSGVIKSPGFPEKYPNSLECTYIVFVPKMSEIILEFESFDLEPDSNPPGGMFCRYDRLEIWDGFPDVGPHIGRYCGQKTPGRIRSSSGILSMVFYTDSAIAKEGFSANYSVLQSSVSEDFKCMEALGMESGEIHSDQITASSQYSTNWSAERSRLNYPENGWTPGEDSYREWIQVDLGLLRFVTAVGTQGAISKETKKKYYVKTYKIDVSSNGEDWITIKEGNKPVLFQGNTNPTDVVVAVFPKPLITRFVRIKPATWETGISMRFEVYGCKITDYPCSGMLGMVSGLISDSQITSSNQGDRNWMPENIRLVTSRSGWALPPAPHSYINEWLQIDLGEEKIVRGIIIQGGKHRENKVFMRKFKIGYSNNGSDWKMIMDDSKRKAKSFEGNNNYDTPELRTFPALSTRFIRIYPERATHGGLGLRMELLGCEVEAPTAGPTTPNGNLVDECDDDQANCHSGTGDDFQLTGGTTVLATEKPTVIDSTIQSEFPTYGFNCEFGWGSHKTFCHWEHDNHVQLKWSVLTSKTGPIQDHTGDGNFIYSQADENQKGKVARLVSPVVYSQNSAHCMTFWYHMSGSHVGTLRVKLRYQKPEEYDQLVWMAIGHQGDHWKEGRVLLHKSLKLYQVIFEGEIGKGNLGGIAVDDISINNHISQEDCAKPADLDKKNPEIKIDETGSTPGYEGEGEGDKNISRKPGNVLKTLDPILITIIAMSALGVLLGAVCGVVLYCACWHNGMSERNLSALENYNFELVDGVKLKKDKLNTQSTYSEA

[3] = molecular target: T3, VEGFR-2/NP-1 co-receptor complex (cells co-expressing hVEGFR-2 and hNP-1) (human, UniProt P35968 20-1356; O14786 22-923); test: as above
T3 construct: whole, on cells; All numbers printed for cells co-expressing both receptors are put on this molecule; also called R2 + NP1 Cells; VEGFR-2/NP-1 complex
T3 sequence (P35968 20-1356, chain 1 of 2): as the sequence (P35968 20-1356) above
T3 sequence (O14786 22-923, chain 2 of 2): as the sequence (O14786 22-923) above

[4] = molecular target: human vascular endothelial growth factor receptor-2 (hVEGFR-2) (human) (UniProt P35968); test: 125I-VEGF165 competition, whole COS-1 cells
human vascular endothelial growth factor receptor-2 (hVEGFR-2) (human), sequence (P35968 20-1356): as the sequence (P35968 20-1356) above

[5] = molecular target: VEGFR-2/NP-1 co-receptor complex (cells co-expressing hVEGFR-2 and hNP-1) (human) (UniProt P35968); test: 125I-VEGF165 competition, whole COS-1 cells
VEGFR-2/NP-1 co-receptor complex (cells co-expressing hVEGFR-2 and hNP-1) (human), sequence (P35968 20-1356, chain 1 of 2): as the sequence (P35968 20-1356) above
VEGFR-2/NP-1 co-receptor complex (cells co-expressing hVEGFR-2 and hNP-1) (human), sequence (O14786 22-923, chain 2 of 2, further chain): as the sequence (O14786 22-923) above

[6] = molecular target: T1, human vascular endothelial growth …; test: cell-based or functional assay
[7] = molecular target: T1, human vascular endothelial growth …; test: cell-based or functional assay; remark: listed apart in the source
[8] = molecular target: T2, human Neuropilin-1 (hNP-1); test: 125I-VEGF165 competition, whole COS-1 cells
Protocol: as §1, §2

[9] = molecular target: T1, human vascular endothelial growth …; test: 125I-VEGF165 (287 pM) competition by cold ligand, COS-1 cells overexpressing VEGFR-2
Protocol: The cells were then rinsed three times with ice cold binding buffer to remove unbound ligand, lysed, and transferred to 12×75 mm test tubes for counting on a gamma counter. The IC₅₀ values were calculated by fitting the data to a four parameter logistic equation (Prism software).

[10] = molecular target: T2, human Neuropilin-1 (hNP-1); test: 125I-VEGF165 competition, whole COS-1 cells; remark: listed apart in the source
[11] = molecular target: human Neuropilin-1 (hNP-1) (human) (UniProt O14786); test: 125I-VEGF165 competition, whole COS-1 cells
human Neuropilin-1 (hNP-1) (human), sequence (O14786 22-923): as above

[12] = molecular target: VEGFR-2/NP-1 co-receptor complex (cells co-expressing hVEGFR-2 and hNP-1) (human) (UniProt P35968); test: 125I-VEGF165 competition, whole COS-1 cells; remark: listed apart in the source
[13] = molecular target: T3, VEGFR-2/NP-1 co-receptor complex (cells …); test: 125I-VEGF165 competition, whole COS-1 cells
[14] = molecular target: T3, VEGFR-2/NP-1 co-receptor complex (cells …); test: 125I-VEGF165 (201 pM) competition, cells overexpressing VEGFR-2 and NP-1 (FIG. 7)
Protocol: as §1, §2

[15] = molecular target: T2, human Neuropilin-1 (hNP-1); test: 125I-VEGF165 competition by cold VEGF165, whole COS-1 cells
Protocol: as §1, §2

[16] = molecular target: T2, human Neuropilin-1 (hNP-1); test: saturation binding of 125I-VEGF165, whole COS-1 cells (transient)
Protocol: as §1, §2

KGRGKRAAEAQAPSDKPRR [P6V8-3NCSA7, 8, 10, 12]
binding result [1]: no binding

RRPKGRGKRRREAAAPSDKPRR (also called NP-1 selective peptide) [AS-4]
binding result [1]: no binding
IC50 [2]: 17.8 nM
IC50 [3]: 300 nM

KGRGKRAAEAQRPSDKPRR [P6V8-3NCSA7, 8, 10]
relative affinity (IC50 peptide / IC50 VEGF165) [4]: 110000

B1: (cap)P6V8-3NCS (peptide)
peptide: KGRGKRRREKQRPSDKPRR
modifications: not fully specified (N-terminus, C-terminus); also: amino and carboxyl termini capped, caps not given here
relative affinity (IC50 peptide / IC50 VEGF165) [5]: 96200
binding result [1]: no binding

B2: VEGF121 (ligand, UniProt P15692-9 27-147, looked up)
chain: APMAEGGGQNHHEVVKFMDVYQRSYCHPIETLVDIFQEYPDEIEYIFKPSCVPLMRCGGCCNDEGLECVPTEESNITMQIMRIKPHQGQHIGEMSFLQHNKCECRPKKDRARQEKCDKPRR
EC50 of VEGF121 for VEGFR-2 phosphorylation in HUVEC in the presence of 100 µM P6 (FIG. 8) [6]: 2.38 nM
EC50 of VEGF121 for VEGFR-2 phosphorylation in HUVEC in the presence of 100 µM P6V8 (FIG. 8) [6]: 4.04 nM
EC50 of VEGF121 for VEGFR-2 phosphorylation in HUVEC with antagonist P6V8-3NCSC13C18 (FIG. 12) [6]: 2.08 nM
EC50 of VEGF121 for VEGFR-2 phosphorylation in HUVEC, no peptide (FIG. 8) [6]: 1.84 nM
EC50 of VEGF121 for VEGFR-2 phosphorylation in HUVEC, no peptide (FIG. 12) [6]: 2.75 nM
EC50 of VEGF121 for VEGFR-2 phosphorylation in HUVEC, no peptide (FIG. 13) [6]: 3.38 nM
EC50 of VEGF121, VEGFR-2 anti-phosphotyrosine assay in HUVEC, no peptide added [7]: 2.45 nM
EC50 of VEGF121, VEGFR-2 anti-phosphotyrosine assay in HUVEC, with 100 µM P6 [7]: 2.4 nM
EC50 of VEGF121, VEGFR-2 anti-phosphotyrosine assay in HUVEC, with 100 µM P6V8 [7]: 4.07 nM
EC50 of VEGF121, VEGFR-2 anti-phosphotyrosine assay in HUVEC, with 100 µM P6V8-3N [7]: 1.17 nM
EC50 of VEGF121, VEGFR-2 anti-phosphotyrosine assay in HUVEC, with 100 µM P6V8-3N (second row with this label) [7]: 1.62 nM
EC50 of VEGF121, VEGFR-2 anti-phosphotyrosine assay in HUVEC, with 100 µM P6V8-3NCS [7]: 4.57 nM
EC50 of VEGF121, VEGFR-2 anti-phosphotyrosine assay in HUVEC, with 100 µM P6V8-3NCS1-7CC [7]: 3.31 nM
EC50 of VEGF121, VEGFR-2 anti-phosphotyrosine assay in HUVEC, with 100 µM P6V8-3NCSA7, 8, 10, 12 [7]: 17.8 nM
EC50 of VEGF121, VEGFR-2 anti-phosphotyrosine assay in HUVEC, with 100 µM P6V8-3NCSC13C18 [7]: 2.09 nM
Log EC50 of VEGF121, VEGFR-2 anti-phosphotyrosine assay in HUVEC, no peptide added [7]: -8.61
Log EC50 of VEGF121, VEGFR-2 anti-phosphotyrosine assay in HUVEC, with 100 µM P6 [7]: -8.62
Log EC50 of VEGF121, VEGFR-2 anti-phosphotyrosine assay in HUVEC, with 100 µM P6V8 [7]: -8.39
Log EC50 of VEGF121, VEGFR-2 anti-phosphotyrosine assay in HUVEC, with 100 µM P6V8-3N [7]: -8.93
Log EC50 of VEGF121, VEGFR-2 anti-phosphotyrosine assay in HUVEC, with 100 µM P6V8-3N (second row with this label) [7]: -8.79
Log EC50 of VEGF121, VEGFR-2 anti-phosphotyrosine assay in HUVEC, with 100 µM P6V8-3NCS [7]: -8.34
Log EC50 of VEGF121, VEGFR-2 anti-phosphotyrosine assay in HUVEC, with 100 µM P6V8-3NCS1-7CC [7]: -8.48
Log EC50 of VEGF121, VEGFR-2 anti-phosphotyrosine assay in HUVEC, with 100 µM P6V8-3NCSA7, 8, 10, 12 [7]: -7.75
Log EC50 of VEGF121, VEGFR-2 anti-phosphotyrosine assay in HUVEC, with 100 µM P6V8-3NCSC13C18 [7]: -8.68
binding result [8]: no binding
IC50 [9]: 0.312 nM

B3: P6V8 (peptide)
peptide: RRPKGRGKRRREKQRPCDKPRR
notes: synthetic; holds one free cysteine; also called P6V8 parent peptide
binding result [10]: binds

AGRGARAAEAQRPSDKPRR [P6V8-3NCSA1, 5, 7, 8, 10]
relative affinity to lead peptide (IC50 peptide / IC50 P6V8-3NCS) [11]: 67.8
relative affinity (IC50 peptide / IC50 VEGF165) [4]: 212000

RRPAAAGKRRREKQRPSDKPRR [AS-1]
binding result [1]: no binding

RRPKGRGKRRREKQRAAAKPRR [AS-4a]
relative affinity to lead peptide (IC50 peptide / IC50 P6V8CS) [4]: 1.9

KGRGKRAAEKQAPSDKPRR [P6V8-3NCSA7, 8, 12]
relative affinity (IC50 peptide / IC50 VEGF165) [12]: 36600
relative affinity (IC50 peptide / IC50 VEGF165) [4]: 6000

CAGRGKRCREKQRPSDKPRR (disulfide 1-8, also called P6V8-3NCSA-1 7CCA1) [P6V8-3NCS1-7CCA1]
binding result [1]: no binding

CKGRGARCREKQRPSDKPRR (disulfide 1-8) [P6V8-3NCS1-7CCA5]
binding result [1]: no binding

CAGRGARCREKQRPSDKPRR (disulfide 1-8) [P6V8-3NCS1-7CCA1A5]
binding result [1]: no binding

CKGRGKRCREKQRPSDKPRR (disulfide 1-8; also: capped amino and carboxyl termini, caps not given here) [(cap)P6V8-3NCS1-7CC]
binding result [10]: no binding
binding result [13]: no binding
binding result [1]: no binding

RPCDKPRR [V8]
binding result [1]: no binding
binding result [8]: no binding

RPSDKPRR [V8CS]
binding result [1]: no binding

RRPKGRGKRRREKQRP (also called P6 peptide; pp6) [P6]
IC50 [14]: 12200 nM

B4: human recombinant VEGF165 (ligand, UniProt P15692-4 27-191, looked up)
chain: APMAEGGGQNHHEVVKFMDVYQRSYCHPIETLVDIFQEYPDEIEYIFKPSCVPLMRCGGCCNDEGLECVPTEESNITMQIMRIKPHQGQHIGEMSFLQHNKCECRPKKDRARQENPCGPCSERRKHLFVQDPQTCKCSCKNTDSRCKARQLELNERTCRCDKPRR
modifications: 125I-labelled (chloramine T) where used as tracer
IC50 [15]: 0.582 nM
log IC50 [15]: -9.24
Kd [16]: 2.09 nM
Log Kd [16]: -8.68

AGRGARAAEKQAPSDKPRR [P6V8-3NCSA1, 5, 7, 8, 12]
binding result [1]: no binding

CKGRGKRCREKQRPSDKPRR (disulfide 1-8, also called P6V8-3NCW1-7CC) [P6V8-3NCS1-7CC]
binding result [1]: no binding

KGRGKRRREKQRPCDKPRR [P6V8-3N]
IC50 [2]: 254 nM

KGAGKARREKQRPSDKPRR [P6V8-3NCSA3A6]
binding result [1]: no binding

AGRGARRREKQRPSDKPRR [P6V8-3NCSA1A5]
binding result [1]: no binding

AGRGKARREKQRPSDKPRR [P6V8-3NCSA1A6]
binding result [1]: no binding

KGAGARRREKQRPSDKPRR [P6V8-3NCSA3A5]
binding result [1]: no binding

KGRGKRRRECQRPSCKPRR (disulfide 10-15) [P6V8-3NCSC13C18]
binding result [10]: binds
binding result [13]: binds
binding result [1]: no binding

RRPKGRGKRRREKQRPDAVPRR (also called P6P7 peptide) [P6P7]
IC50 [14]: 1170 nM
